Five molecules from patent US20240262893A1 can be followed below.

Substrate in test [1]: S protein of a SARS-CoV-2 delta lineage virus on pseudotyped virus (SARS-CoV-2 (delta lineage))
Briefly: cell-based or functional assay.

For test [2], the target named is T1, SARS CoV-2 spike trimer protein from the parental Wuhan-Hu-1 isolate (extracellular domain, furin-cl (SARS-CoV-2 (Wuhan-Hu-1))). Briefly: ELISA, spike protein coated, IgG detected with anti-human Fc-HRP. Conditions: remark: other sources report otherwise. A general note: In an ELISA, binding on a coated surface is turned into a signal by an enzyme label.
For test [3], the target named is T1, SARS CoV-2 spike trimer protein from …. Conditions: remark: other sources report otherwise.
For test [4] the target is unchanged. Conditions: remark: other sources report otherwise. This is another data set of the same source.
Test [5] has as its target recombinant stabilized spike protein derived from the beta strain (formerly described as the South A (SARS-CoV-2 (B.1.351)), P0DTC2). Particulars: remark: other sources report otherwise.

Where two headings read alike, the source gives them in different places.

B1: purified R2G3 CDR3-knob (after enterokinase cleavage from trxA) (peptide)
peptide: EGDKTCPDGYEHTCGCIGGCGCKRSACIGALCCQASLGGWLSDGETYTYEF
modifications: not checked
Consider B1, for which, in test [1], the pseudovirus neutralization, ng/mL (quantity not given) came to 302 ng/mL.

B2: R2D9 CDR3-knob (peptide)
peptide: ITHKTCPNGYNWFDRCCSWDGTCGDGCCSNRAWPSGNGRADSSIGETYGYEF
modifications: not checked
For B2, the pseudovirus neutralization, ng/mL (quantity not given) in test [1] stood at 66.8 ng/mL.

B3: SKM ultralong CDR3 chimeric bovine-human IgG1 antibody (antibody)
VH: QVQLRESGPSLVKPSQTLSLTCTASGFSLSDKAVGWVRQAPGKALEWLGSIDTGGNTGYNPGLKSRLSITKDNSKSQVSLSVSSVTTEDSATYYCTTVHQETLRSCPDGYIDNSGCTADWGCAALDCWRRRFGYHSTDPSHYTGATYIYTYSLHIDAWGQGLLVTVSS
VL: QAVLNQPSSVSGSLGQRVSITCSGSSSNVGNGYVSWYQLIPGSAPRTLIYGDTSRASGVPDRFSGSRSGNTATLTISSLQAEDEADYFCASAEDSSSNAVFGSGTTLTVL
A word on the EC50: it is the concentration that produces a half-maximal response. A word on the EC50 (read off the curve): it is the concentration at which the effect is half-maximal. As for B3, the 50% effective concentration (EC50) in test [2] worked out at 0.19 nM. Moreover, the EC50 (read off the curve) in test [3] turned out to be 0.2 nM.

B4: SKD ultralong CDR3 chimeric bovine-human IgG1 antibody (antibody)
VH: QVQLRESGPSLVKPSQTLSLTCTASGFSLSDKAVGWVRQAPGKALEWLGSIDTGGNTGYNPGLKSRLSITKDNSKSQVSLSVSSVTTEDSATYYCTTVHQRTSEKRSCPGGSSRRYPSGASCDVSGGACACYVSNCRGVLCPTLNEIVAYTYEWHVDAWGQGLLVTVSS
VL: QAVLNQPSSVSGSLGQRVSITCSGSSSNVGNGYVSWYQLIPGSAPRTLIYGDTSRASGVPDRFSGSRSGNTATLTISSLQAEDEADYFCASAEDSSSNAVFGSGTTLTVL
Regarding B4, the EC50 in test [2] stood at 0.16 nM.

B5: R4C1 ultralong CDR3 chimeric bovine-human IgG1 antibody (antibody)
VH: QVQLRESGPSLVKPSQTLSLTCTASGFSLSDKAVGWVRQAPGKPLEWLGSIDTAENTGYNPGLKSRLSITKDNSKSQVSLSVSSVTTEDSATYYCATVHQKTRKEKNCPDGYIYSSNTASGYDCGVWICRRVGSAFCSRTGDYTSPSEFDIYEFYVEGWGQGLLVTVSS
VL: QAVLNQPSSVSGSLGQRVSITCSGSSSNVGNGYVSWYQLIPGSAPRTLIYGDTSRASGVPDRFSGSRSGNTATLTISSLQAEDEADYFCASAEDSSSNAVFGSGTTLTVL
Take B5: the EC50 (read off the curve) in test [4] stood at 0.03 nM; in test [3], 0.3 nM; in test [5], 0.3 nM. Further, the EC50 in test [2] is 0.2 nM.
